Laboratory results as given in the supplement of paper PMC9170038.

Tested on: MS2 coat protein
Assay: apparent KD of MS2 coat protein; designed switch direction (-1 OFF switch, 1 ON switch): 1; higher = weaker reporter binding
Summary of the method: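 Stalled E. coli RNA polymerase transcribed designed RNA switches on Illumina chips, which were then titrated with SNAP-549-labelled MS2 coat protein, doubling from 0.7 or 1.5 nM to 3 µM. Steps lasted from 0.8–1.5 h at the lowest concentration to 10–20 min at the highest. The apparent KD is each design's median over clusters of curve-fitted normalised fluorescence.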

[1] = Eterna round: R95, input ligand: FMN 200 uM
[2] = Eterna round: R95, input ligand: microRNA oligo, concentration not stated
[3] = Eterna round: R95, input ligand: none
[4] = input ligand: microRNA oligo, concentration not stated

Sequence	apparent KD of MS2 coat protein [1]	apparent KD of MS2 coat protein [2]	apparent KD of MS2 coat protein [3]	apparent KD of MS2 coat protein [4]	apparent KD of MS2 coat protein (input ligand: FMN 200 uM)	apparent KD of MS2 coat protein (input ligand: none)
UGUCCAGCCUGAGCUGGACAAAAGCAUGUACAUGAGGAUCACCCAUGUUCAUGUACAAGCUUUUUGCUCGUCUUACA [salish99_208a_r3_080] (puzzle: Sensor for hsa-mir-208a)	0.347 µM	0.0152 µM	0.529 µM	–	–	–
UGUUGUAUUACAGGAUAUCUAGUUUUUUUAUUUAGAGAAGGGUAUUCACAUGAGGAUCACCCAUGUAUAUACGAGGAAGUUGUG [JMF's solution 33] (Eterna round: R96, puzzle: Same State NG 1)	–	–	–	0.0364 µM	–	–
UGUUGUAUUACAGGAUAUCUAUUAGUUGUAUUUAGAGAAGGGUAUUCACAUGAGGAUCACCCAUGUAUAUACGAGGAAGUUGUG [JMF's solution 92] (Eterna round: R96, puzzle: Same State NG 1)	–	–	–	0.0441 µM	0.0798 µM	0.0597 µM
UGUUGUAUUACAGGAUAUCUAUUAUUUGUAUUUAGAGAAGGGUAUUCACAUGAGGAUCACCCAUGUAUAUACGAGGAAGUUGUG [JMF's solution 20] (Eterna round: R96, puzzle: Same State NG 1)	–	–	–	0.0424 µM	–	–
UGUUGUAUUACAGGAUAUCUAUUAUUUUUACUUAGAGAAGGGUAUUCACAUGAGGAUCACCCAUGUAUAUACGAGGAAGUUGUG [JMF's solution 27] (Eterna round: R96, puzzle: Same State NG 1)	–	–	–	0.0382 µM	–	–
UGUUGUAUUACAGGAUAUCUAUUGUUUUUUUUUAGAGAAGGGUAUUCACAUGAGGAUCACCCAUGUAUAUACGAGGAAGUUGUG [JMF's solution 79] (Eterna round: R96, puzzle: Same State NG 1)	–	–	–	0.0432 µM	–	–
UGUUGUUAAUUAGGAUAUGGGCACAUGAGGAUCACCCAUGUAUUUUCGAUGCUAUGUGGAGACGUCUAGAAGGGAUGGCUAACA [SameState NG2 #88] (Eterna round: R96, puzzle: Same State NG 2)	–	–	–	0.151 µM	0.254 µM	0.158 µM
UUAAAACAUGAGGAUCACCCAUGUAAUAAUAUGGGAGGAUAUCAGAAUGUAUGUAUGUAAUGAGAAGGCCUAAAUG [Mat - Same State 1 - Mod of Eli - D77] (puzzle: Same State 1)	0.0704 µM	0.156 µM	0.398 µM	–	–	–
UUAAAACAUGAGGAUCACCCAUGUCAACAAAGUCGAGGAUAUGGGCAAAUAAAAUAAGAACCAGAAGGCGAAUAAA [salish99_SS1_r3_002] (puzzle: Same State 1)	0.0395 µM	0.245 µM	0.412 µM	–	–	–
UUAAUAAUGUUAGGAUAUACAUGAGGAAUCCUCGUAGAAGGAACAUGACAUGAGGAUCACCCAUGUAGCGCUCCGAAGAGCGCA [Mat - Same State NG 1 - JL mod - D46] (Eterna round: R96, puzzle: Same State NG 1)	–	–	–	0.115 µM	0.254 µM	0.161 µM
UUAAUGAUGUAAGGAUAUACAUGAGGAAUUCUCGUAGAAGGUACAUGACAUGAGGAUCACCCAUGUAUCGCUCCGUAGAGCGUA [JL SSNG1 1.12] (Eterna round: R96, puzzle: Same State NG 1)	–	–	–	0.119 µM	0.19 µM	0.0797 µM
UUAAUGAUGUAAGGAUAUACAUGAGGAUUUCUCGUAGAAGGUACAGGACAUGAGGAUCACCCAUGUGUCGCUCCGUAGAGCGUA [JL SSNG1 1.08] (Eterna round: R96, puzzle: Same State NG 1)	–	–	–	0.414 µM	0.349 µM	0.525 µM
UUAAUUUGUUGAGGAUAUUAUGUCAAAAGAGAAGACAUGAGGAUCACCCAUGUGAGAAAAGGUUUUAAGAAGGCAACAUUCAUA [JR_SSNG2_Sub089] (Eterna round: R96, puzzle: Same State NG 2)	–	–	–	0.0777 µM	0.0395 µM	0.115 µM
UUACUCAUGUAAGGAUAUGCAGCCGAAACGGCUGCAGAAGGUACUAAAAUACAUGAGGAUCACCCAUGUCUUUUUAAUUUAGAC [Mat - Same State NG 1 - JL mod - D83] (Eterna round: R96, puzzle: Same State NG 1)	–	–	–	0.0284 µM	0.0584 µM	0.0333 µM
UUACUCAUGUAAGGAUAUGCAGCCGUUUCGGCUGCAGAAGGUACUAUAAUACAUGAGGAUCACCCAUGUCUCUAUUAUUUGGUG [salish99_SSNG1_r04_923] (Eterna round: R96, puzzle: Same State NG 1)	–	–	–	0.0511 µM	0.111 µM	0.0844 µM
UUACUCCCUACAUGAGGAUCACCCAUGUUUUACAAACCCAACGAGGAUAUGUUGAGCGGAUGUAAGCAGAAGGCGUAGGGUAGA [Eternabot solution 37] (Eterna round: R96, puzzle: Same State NG 3)	–	–	–	0.0167 µM	0.143 µM	0.04 µM
UUAGAAUUGCAAGGAUAUCUAAUGUAGAUAGUAAGAGAAGGUGCUUGAUAGUUACAUGAGGAUCACCCAUGUAUUUGGGUUUAU [JR_SSNG1_Sub057] (Eterna round: R96, puzzle: Same State NG 1)	–	–	–	0.345 µM	–	–
UUAUAACAUGAGGAUCACCCAUGUCAACAAAGUCGAGGAUAUGGGCAAGAAGUGAGAGAACCAGAAGGCGAAUAUU [Mat - Same State 1 - Mod of UCT - D30] (puzzle: Same State 1)	0.072 µM	0.0887 µM	0.0974 µM	–	–	–
UUAUAACAUGAGGAUCACCCAUGUCAACAAAGUCGAGGAUAUGGGCAUAGAUUAUAAGAACCAGAAGGCGAAUAUU [Mat - Same State 1 - Mod of UCT - D40] (puzzle: Same State 1)	0.0518 µM	0.117 µM	0.118 µM	–	–	–
UUCUCAUUUACAUGAGGAUCACCCAUGUUUUUAUGUCAGAGAUAGGAUAUAGUUCUCUCGUUUUUCUAGAAGGAUCUUUUUAUU [JR_SSNG3_Sub086] (Eterna round: R96, puzzle: Same State NG 3)	–	–	–	0.0413 µM	0.0659 µM	0.0646 µM
UUCUCCUUUUUUUACAUGAGGAUCACCCAUGUUUACCCUACGUAGGAUAUCGAUGAGUGUUUGUACGAGAAGGACGUAGUAAGU [JR_SSND3_Sub058] (Eterna round: R96, puzzle: Same State NG 3)	–	–	–	0.106 µM	0.0374 µM	0.137 µM
UUGAAGAAUUAAGGAUAUUGAGUACAUAUGUAAAACAUGAGGAUCACCCAUGUGGGUUGCGGUAUCGAGAAGGUAAAUUACUAG [Mat - same State NG 2 - JL mod - D69] (Eterna round: R96, puzzle: Same State NG 2)	–	–	–	0.0662 µM	0.0699 µM	0.0659 µM
UUGAAUAAUUAAGGAUAUCGAGUACAUAUGUUAAACAUGAGGAUCACCCAUGUGGGUUGCGGUAUCGAGAAGGUAAAAGAAAAG [Mat - Same State NG 2 - JL mod - D60] (Eterna round: R96, puzzle: Same State NG 2)	–	–	–	0.0219 µM	0.0326 µM	0.0358 µM
